Test results as given in patent US20180201657A1.

Legend:
[1] = molecular target: FLARE transcription factor component as used in cultured neurons (Neurexin-3b-derived TM, soma targe (Avena sativa)); assay: cell-based or functional assay
[2] = molecular target: CD4-TM:CaMbp(M2):LOV:TEVcs(high affinity):Gal4 (original LOV2) (Avena sativa); assay: cell-based or functional assay
[3] = molecular target: CD4-TM:CaMbp(M2):eLOV:TEVcs(high affinity):Gal4 (Avena sativa); assay: cell-based or functional assay
Sequence of CD4-TM:CaMbp(M2):eLOV:TEVcs(high affinity):Gal4 (Avena sativa) (Q2QYY8 other isoform, or with tags, fused parts or gaps): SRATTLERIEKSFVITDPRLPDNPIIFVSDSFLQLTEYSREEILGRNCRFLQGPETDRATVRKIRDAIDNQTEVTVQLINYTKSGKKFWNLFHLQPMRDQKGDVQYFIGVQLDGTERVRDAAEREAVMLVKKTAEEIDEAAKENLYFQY

[4] = molecular target: CD4-TM:CaMbp(M2):TEVcs:Gal4 (without LOV domain) (UniProt P04386); assay: cell-based or functional assay
[5] = molecular target: Aga2p-HA-eLOV-TEVcs(ENLYFQY)-FLAG displayed on yeast (UniProt P32781)

## FLARE protease component as used in cultured neurons (CaM-TEV) (from UniProt P04517 2038-2256)
[1]
  S/N with versus without neuronal activity (mCherry, field stimulation with blue light, 8 minutes): 11
  light/dark S/N (mCherry reporter, cultured neurons, field stimulation, FIG. 10D): 17
  light/dark S/N (mCherry reporter, cultured neurons, media change, FIG. 10C): 121
  mCherry signal with stimulation against light exposed/non-stimulated neurons: > 10 fold

## CaM-TEV(truncated) (from UniProt P04517 2038-2256)
[2]
  high/low Ca^2+ S/N (reporter expression, HEK cells): 5
  light/dark S/N (reporter expression, HEK cells): 2
[3]
  high/low Ca^2+ S/N (reporter expression, HEK cells): 16
  light/dark S/N (reporter expression, HEK cells): 23
[4]
  high/low Ca^2+ S/N (reporter expression, HEK cells): 2

## MBP-TEV(S219V) fusion, purified
[5]
  anti-Flag/anti-HA staining of yeast after TEV protease treatment in the dark (FACS): Evolved LOV displays superior protection of TEVcs against TEV cleavage in the dark state
